Substitutions are numbered along the chain they refer to.
B1: modified version of TCR 13 (TCR)
TCR alpha: AQSVTQLDSHVSVSEGTPVLLRCNYSSSYSPSLFWYVQHPNKGLQLLLKYTSAATLVKGINGFEAEFKKSETSFHLTKPSAHMSDAAEYFCVVRGGKLIFGQGTELSVKPNIQNPDPAVYQLRDSKSSDKSVCLFTDFDSQTNVSQSKDSDVYITDKCVLDMRSMDFKSNSAVAWSNKSDFACANAFNNSIIPEDTFFPSPESSCDVKLVEKSFETDTNLNFQNLSVIGFRILLLKVAGFNLLMTLRLWSS
TCR beta: GAGVSQSPRYKVAKRGQDVALRCDPISGHVSLFWYQQALGQGPEFLTYFQNEAQLDKSGLPSDRFFAERPEGSVSTLKIQRTQQEDSAVYLCASSPTGTERELFFGEGSRLTVLEDLKNVFPPEVAVFEPSEAEISHTQKATLVCLATGFYPDHVELSWWVNGKEVHSGVCTDPQPLKEQPALNDSRYCLSSRLRVSATFWQNPRNHFRCQVQFYGLSENDEWTQDRAKPVTQIVSAEAWGRADCGFTSESYQQGVLSATILYEILLGKATLYAVLVSALVLMAMVKRKDSRG
B2: modified version of TCR 14 (TCR)
TCR alpha: ILNVEQSPQSLHVQEGDSTNFTCSFPSSNFYALHWYRWETAKSPEALFVMTLNGDEKKKGRISATLNTKEGYSYLYIKGSQPEDSATYLCASQTGANNLFFGTGTRLTVIPYIQNPDPAVYQLRDSKSSDKSVCLFTDFDSQTNVSQSKDSDVYITDKCVLDMRSMDFKSNSAVAWSNKSDFACANAFNNSIIPEDTFFPSPESSCDVKLVEKSFETDTNLNFQNLSVIGFRILLLKVAGFNLLMTLRLWSS
TCR beta: DVKVTQSSRYLVKRTGEKVFLECVQDMDHENMFWYRQDPGLGLRLIYFSYDVKMKEKGDIPEGYSVSREKKERFSLILESASTNQTSMYLCASTFWGQRRTEAFFGQGTRLTVVEDLNKVFPPEVAVFEPSEAEISHTQKATLVCLATGFFPDHVELSWWVNGKEVHSGVCTDPQPLKEQPALNDSRYCLSSRLRVSATFWQNPRNHFRCQVQFYGLSENDEWTQDRAKPVTQIVSAEAWGRADCGFTSVSYQQGVLSATILYEILLGKATLYAVLVSALVLMAMVKRKDF
B3: TCR 15 (codon-optimized, cysteine-modified) (TCR, V domains shown)
V domain 1: AQKITQTQPGMFVQEKEAVTLDCTYDTSDQSYGLFWYKQPSSGEMIFLIYQGSYDEQNATEGRYSLNFQKARKSANLVISASQLGDSAMYFCAMKPGGYNKLIFGAGTRLAVHP
V domain 2: DAGVIQSPRHEVTEMGQEVTLRCKPISGHNSLFWYRQTMMRGLELLIYFNNNVPIDDSGMPEDRFSAKMPNASFSTLKIQPSEPRDSAVYFCASSLVGRSRTEQYFGPGTRLTVTE
B4: TCR 26 (codon-optimized, cysteine-modified) (TCR, V domains shown)
V domain 1: B3 V domain 1 with K95R, P96D, G97A, G98R, Y99N, K101D, L102M, I103R, A111T, H113K
V domain 2: NAGVTQTPKFRVLKTGQSMTLLCAQDMNHEYMYWYRQDPGMGLRLIHYSVGEGTTAKGEVPDGYNVSRLKKQNFLLGLESAAPSQTSVYFCASSYYASGRNYEQYFGPGTRLTVTE
B5: TCR 30 (codon-optimized, cysteine-modified) (TCR, V domains shown)
V domain 1: DAKTTQPPSMDCAEGRAANLPCNHSTISGNEYVYWYRQIHSQGPQYIIHGLKNNETNEMASLIITEDRKSSTLILPHATLRDTAVYYCIVRGTSVLQGNEKLTFGTGTRLTIIP
V domain 2: EPEVTQTPSHQVTQMGQEVILRCVPISNHLYFYWYRQILGQKVEFLVSFYNNEISEKSEIFDDQFSVERPDGSNFTLKIRSTKLEDSAMYFCASSRQPSSGNTIYFGEGSWLTVVE
B6: TCR 16 (codon-optimized, cysteine-modified) (TCR, V domains shown)
V domain 1: KQEVTQIPAALSVPEGENLVLNCSFTDSAIYNLQWFRQDPGKGLTSLLLIQSSQREQTSGRLNASLDKSSGRSTLYIAASQPGDSATYLCAVRPANNNDMRFGAGTRLTVKP
V domain 2: DVKVTQSSRYLVKRTGEKVFLECVQDMDHENMFWYRQDPGLGLRLIYFSYDVKMKEKGDIPEGYSVSREKKERFSLILESASTNQTSMYLCASSLWGRSNQPQHFGDGTRLSILE
B7: TCR 19 (codon-optimized, cysteine-modified) (TCR, V domains shown)
V domain 1: AQKITQTQPGMFVQEKEAVTLDCTYDTSDQSYGLFWYKQPSSGEMIFLIYQGSYDEQNATEGRYSLNFQKARKSANLVISASQLGDSAMYFCAMRENTGTASKLTFGTGTRLQVTL
V domain 2: B6 V domain 2 with L95S, R98Q, N100T, Q101G, P102E, H104Y, D107P, S112T, I113V, L114T
B8: TCR 25 (codon-optimized, cysteine-modified) (TCR, V domains shown)
V domain 1: AQKITQTQPGMFVQEKEAVTLDCTYDTSDQSYGLFWYKQPSSGEMIFLIYQGSYDEQNATEGRYSLNFQKARKSANLVISASQLGDSAMYFCAMREGSLTGGGNKLTFGTGTQLKVEL
V domain 2: B6 V domain 2 with R98Q
B9: TCR 29 (codon-optimized, cysteine-modified) (TCR, V domains shown)
V domain 1: B7 V domain 1 with E96L
V domain 2: DGGITQSPKYLFRKEGQNVTLSCEQNLNHDAMYWYRQDPGQGLRLIYYSQIVNDFQKGDIAEGYSVSREKKESFPLTVTSAQKNPTAFYLCASSPWGRATNEQFFGPGTRLTVLE
B10: TCR 28 (codon-optimized, cysteine-modified) (TCR, V domains shown)
V domain 1: RKEVEQDPGPFNVPEGATVAFNCTYSNSASQSFFWYRQDCRKEPKLLMSVYSSGNEDGRFTAQLNRASQYISLLIRDSKLSDSATYLCVVRGGGTSYGKLTFGQGTILTVHP
V domain 2: DVKVTQSSRYLVKRTGEKVFLECVQDMDHENMFWYRQDPGLGLRLIYFSYDVKMKEKGDIPEGYSVSREKKERFSLILESASTNQTSMYLCASSLWGRSSGNTIYFGEGSWLTVVE
B11: TCR 20 (codon-optimized, cysteine-modified) (TCR, V domains shown)
V domain 1: AQKVTQAQTEISVVEKEDVTLDCVYETRDTTYYLFWYKQPPSGELVFLIRRNSFDEQNEISGRYSWNFQKSTSSFNFTITASQVVDSAVYFCALWTGANNLFFGTGTRLTVIP
V domain 2: GAVVSQHPSRVICKSGTSVKIECRSLDFQATTMFWYRQFPKQSLMLMATSNEGSKATYEQGVEKDKFLINHASLTLSTLTVTSAHPEDSSFYICSASSLARRSYEQYFGPGTRLTVTE
B12: TCR 55 (codon-optimized, cysteine-modified) (TCR)
TCR alpha: GEDVEQSLFLSVREGDSSVINCTYTDSSSTYLYWYKQEPGAGLQLLTYIFSNMDMKQDQRLTVLLNKKDKHLSLRIADTQTGDSAIYFCAVPSGATNKLIFGTGTLLAVQPNIQNPDPAVYQLRDSKSSDKSVCLFTDFDSQTNVSQSKDSDVYITDKCVLDMRSMDFKSNSAVAWSNKSDFACANAFNNSIIPEDTFFPSPESSCDVKLVEKSFETDTNLNFQNLSVIGFRILLLKVAGFNLLMTLRLWSS
TCR beta: EPEVTQTPSHQVTQMGQEVILRCVPISNHLYFYWYRQILGQKVEFLVSFYNNEISEKSEIFDDQFSVERPDGSNFTLKIRSTKLEDSAMYFCASTTRSSYEQYFGPGTRLTVTEDLKNVFPPEVAVFEPSEAEISHTQKATLVCLATGFYPDHVELSWWVNGKEVHSGVCTDPQPLKEQPALNDSRYCLSSRLRVSATFWQNPRNHFRCQVQFYGLSENDEWTQDRAKPVTQIVSAEAWGRADCGFTSESYQQGVLSATILYEILLGKATLYAVLVSALVLMAMVKRKDSRG
B13: TCR 51 (codon-optimized, cysteine-modified) (TCR, V domains shown)
V domain 1: QKEVEQNSGPLSVPEGAIASLNCTYSDRGSQSFFWYRQYSGKSPELIMSIYSNGDKEDGRFTAQLNKASQYVSLLIRDSQPSDSATYLCAVNMRGGGSNYKLTFGKGTLLTVNP
V domain 2: EPEVTQTPSHQVTQMGQEVILRCVPISNHLYFYWYRQILGQKVEFLVSFYNNEISEKSEIFDDQFSVERPDGSNFTLKIRSTKLEDSAMYFCAIASRVSYEQYFGPGTRLTVTE
B14: TCR 32 (codon-optimized, cysteine-modified) (TCR, V domains shown)
V domain 1: TQLLEQSPQFLSIQEGENLTVYCNSSSVFSSLQWYRQEPGEGPVLLVTVVTGGEVKKLKRLTFQFGDARKDSSLHITAAQPGDTGLYLCAGGSNYKLTFGKGTLLTVNP
V domain 2: DSGVTQTPKHLITATGQRVTLRCSPRSGDLSVYWYQQSLDQGLQFLIQYYNGEERAKGNILERFSAQQFPDLHSELNLSSLELGDSALYFCASSVGGDHSDEQFFGPGTRLTVLE
B15: TCR 50 (codon-optimized, cysteine-modified) (TCR, V domains shown)
V domain 1: GEDVEQSLFLSVREGDSSVINCTYTDSSSTYLYWYKQEPGAGLQLLTYIFSNMDMKQDQRLTVLLNKKDKHLSLRIADTQTGDSAIYFCAESPPGTYKYIFGTGTRLKVLA
V domain 2: DSGVTQTPKHLITATGQRVTLRCSPRSGDLSVYWYQQSLDQGLQFLIHYYNGEERAKGNILERFSAQQFPDLHSELNLSSLELGDSALYFCASSATRDAYGYTFGSGTRLTVVE
B16: TCR 31 (codon-optimized, cysteine-modified) (TCR, V domains shown)
V domain 1: DQQVKQNSPSLSVQEGRISILNCDYTNSMFDYFLWYKKYPAEGPTFLISISSIKDKNEDGRFTVFLNKSAKHLSLHIVPSQPGDSAVYFCAASERGTYKYIFGTGTRLKVLA
V domain 2: GAGVSQSPSNKVTEKGKDVELRCDPISGHTALYWYRQSLGQGLEFLIYFQGNSAPDKSGLPSDRFSAERTGGSVSTLTIQRTQQEDSAVYLCASSRFLGSTDTQYFGPGTRLTVLE
B17: TCR 53 (codon-optimized, cysteine-modified) (TCR, V domains shown)
V domain 1: AQSVAQPEDQVNVAEGNPLTVKCTYSVSGNPYLFWYVQYPNRGLQFLLKYITGDNLVKGSYGFEAEFNKSQTSFHLKKPSALVSDSALYFCAVRDFGSGTYKYIFG
V domain 2: GAGVSQSPRYKVTKRGQDVALRCDPISGHVSLYWYRQALGQGPEFLTYFNYEAQQDKSGLPNDRFSAERPEGSISTLTIQRTEQRDSAMYRCASSGSGTSGYNEQFFGPGTRLTVLE

Target: T1, HLA-A2/E6(29-38) tetramer (human; HPV 16)
T1 construct: also called E6(29-38) peptide-MHC tetramer; E6 tet
Assay: flow cytometry, tetramer + anti-CD8; transfected Jurkat-derived cells, CD8+ cells
Procedure: (§1) For transfection, the CD4+ and CD4+/CD8+ cell mixtures were transiently transfected with TCR-encoding plasmids and 48 hours after transfection, cells were assessed by flow cytometry for (1) binding of the target peptide in the context of an MHC molecule (HLA:A02:01) by staining with an E6(29-38) peptide- or an E7(11-19) peptide-MHC tetramer reagent, and/or (2) CD8+ independent binding of the target by co-staining the tetramer-labeled cells with an anti-CD8 antibody.

Row | Binder | % cells E6 tet+/CD8+ quadrant | % cells E6 tet+/CD8- quadrant
1 | B1 | 38.6% | 0.064%
2 | B2 | 38.4% | 0.04%

Target: T1, HLA-A2/E6(29-38) tetramer
Assay: flow cytometry, tetramer + anti-CD8; transfected mix of CD8- and CD8+ Jurkat-derived cells;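 for % cells E6 tet+/CD8+ quadrant: CD4+ and CD4+/CD8+ cell mixtures transiently given TCR plasmids, analysed 48 h post-transfection by flow cytometry with E6(29-38)–HLA-A*02:01 tetramer plus anti-CD8 antibody co-stain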;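 for % cells E6 tet+/CD8- quadrant: CD4+ and CD4+/CD8+ cell mixtures transiently given TCR plasmids, analysed 48 h post-transfection by flow cytometry with E6(29-38)–HLA-A*02:01 tetramer plus anti-CD8 antibody co-stain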;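 for % cells E7 tet+/CD8+ quadrant: cells transiently transfected with TCR-encoding plasmids, analysed 48 h afterwards by co-staining with HLA-A*02:01 peptide tetramer and anti-CD8 antibody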;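 for % cells E7 tet+/CD8- quadrant: cells transiently transfected with TCR-encoding plasmids, analysed 48 h afterwards by co-staining with HLA-A*02:01 peptide tetramer and anti-CD8 antibody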
Procedure: as §1

Row | Binder | % cells E6 tet+/CD8+ quadrant | % cells E6 tet+/CD8- quadrant
3 | B3 | 21.4% | 40.2%
4 | B4 | 42.3% | 47.4%
5 | B5 | 31% | 0.74%
6 | B6 | 35.6% | 28.2%
7 | B7 | 35.5% | 20.8%
8 | B8 | 34% | 14.7%
9 | B9 | 35.6% | 44.5%
10 | B10 | 13.1% | 0.15%
11 | B11 | 38.2% | 34.1%

Target: T2, HLA-A2/E7(11-19) tetramer (human; HPV 16)
T2 construct: also called E7(11-19) peptide-MHC tetramer; E7 tet
Assay: as above
Procedure: as §1

Row | Binder | % cells E7 tet+/CD8+ quadrant | % cells E7 tet+/CD8- quadrant
12 | B12 | 1.45% | 0.28%
13 | B13 | 5.7% | 2.06%
14 | B14 | 25.3% | 33.5%
15 | B15 | 3.28% | 0.25%
16 | B16 | 4.52% | 0.042%
17 | B17 | 3.35% | 0.43%
